Experimental data: the supplement of paper PMC7125110
± gives the standard error. For some assays here: Variants at the floor of the assay were thinned out.

B1: glmS ribozyme (parent)
chain: AUAAAAGCGCCAGAACUACAGAAAUGUAGUUGACGAGGAGGAGGUUUAUCGAAUUUUCGGCGGAUGCCUCCAAA

Assays:
Settings in all cases: with glucosamine-6-phosphate
glucosamine-6-phosphate [1] = variants of: B1; experiment: kcat; higher = faster cleavage; RNA array
Procedure, shortened: (§1)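 Ribozyme variants carrying barcodes were transcribed in situ on sequenced MiSeq chips by E. coli RNA polymerase and tracked at 37 °C with a hybridised Cy3 probe. They were exposed to 40 μM to 10 mM glucosamine-6-phosphate in HEPES/KCl/Mg(OAc)2 buffer. kobs came from exponential decay fits of normalised per-tile medians, and kcat and KM from weighted Michaelis–Menten fits.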

glucosamine-6-phosphate [2] = variants of: B1; experiment: KM; higher = weaker cofactor use; RNA array
Procedure, shortened: as §1

glucosamine-6-phosphate [3] = variants of: B1; experiment: self-cleavage kobs at 640 uM GlcN6P; higher = faster cleavage; RNA array
Procedure, shortened: as §1

glucosamine-6-phosphate [4] = variants of: B1; experiment: self-cleavage kobs at 2500 uM GlcN6P; higher = faster cleavage; RNA array
Procedure, shortened: as §1

glucosamine-6-phosphate [5] = variants of: B1; experiment: self-cleavage kobs at 10000 uM GlcN6P; higher = faster cleavage; RNA array
Procedure, shortened: as §1

glucosamine-6-phosphate [6] = variants of: B1; experiment: self-cleavage kobs at 40 uM GlcN6P; higher = faster cleavage; RNA array
Procedure, shortened: as §1

glucosamine-6-phosphate [7] = variants of: B1; experiment: self-cleavage kobs at 160 uM GlcN6P; higher = faster cleavage; RNA array
Procedure, shortened: as §1

| Variant | kcat (glucosamine-6-phosphate [1]) | KM (glucosamine-6-phosphate [2]) | self-cleavage kobs at 640 uM GlcN6P (glucosamine-6-phosphate [3]) | self-cleavage kobs at 2500 uM GlcN6P (glucosamine-6-phosphate [4]) | self-cleavage kobs at 10000 uM GlcN6P (glucosamine-6-phosphate [5]) | self-cleavage kobs at 40 uM GlcN6P (glucosamine-6-phosphate [6]) | self-cleavage kobs at 160 uM GlcN6P (glucosamine-6-phosphate [7]) |
| --- | --- | --- | --- | --- | --- | --- | --- |
| C16A G32C | 9.38e-05 ± 2.3e-06 s⁻¹ | 1220 ± 140 µM | 3.44e-05 ± 1.6e-05 s⁻¹ | 5.99e-05 ± 1.7e-05 s⁻¹ | 8.41e-05 ± 1e-05 s⁻¹ |  |  |
| G29A A42G | 0.00587 ± 0.0021 s⁻¹ | 1120 ± 510 µM | 0.00227 ± 0.00083 s⁻¹ | 0.00308 ± 0.0011 s⁻¹ | 0.00757 ± 0.0021 s⁻¹ | 0.00025 ± 4.4e-05 s⁻¹ | 0.000587 ± 0.00015 s⁻¹ |
| A15U U31A | 0.00127 ± 0.00026 s⁻¹ | 2230 ± 880 µM | 0.000289 ± 5.3e-05 s⁻¹ | 0.000874 ± 0.00015 s⁻¹ | 0.00101 ± 9.8e-05 s⁻¹ | 3.45e-05 ± 7.5e-06 s⁻¹ | 4.67e-05 ± 2e-05 s⁻¹ |
| C16A U46A | 7.31e-05 ± 2e-06 s⁻¹ | 547 ± 78 µM |  | 6.28e-05 ± 2e-05 s⁻¹ | 6.82e-05 ± 1.6e-05 s⁻¹ |  |  |
| C16A U46C | 6.68e-05 ± 1.4e-05 s⁻¹ |  |  | 5.11e-05 ± 1.4e-05 s⁻¹ | 5.46e-05 ± 1e-05 s⁻¹ | < 1e-05 s⁻¹ |  |
| C16A A53C | 0.000269 ± 1.8e-05 s⁻¹ | 1770 ± 270 µM | 6.66e-05 ± 1.2e-05 s⁻¹ | 0.000164 ± 2.3e-05 s⁻¹ | 0.000226 ± 2.5e-05 s⁻¹ |  | 3.05e-05 ± 1.2e-05 s⁻¹ |
| A15U U57G C58U C70A | 6.42e-05 ± 1.8e-05 s⁻¹ |  | 9.48e-05 ± 3.5e-05 s⁻¹ | 7.42e-05 ± 2e-05 s⁻¹ |  |  | 4.86e-05 ± 1.7e-05 s⁻¹ |
| C16U U47A | 0.0299 ± 0.0051 s⁻¹ | 3060 ± 660 µM | 0.00515 ± 0.00087 s⁻¹ | 0.0118 ± 0.003 s⁻¹ | 0.0259 ± 0.0068 s⁻¹ | 0.0004 ± 7.1e-05 s⁻¹ |  |
| C16G U65A | 0.000589 ± 6.3e-05 s⁻¹ | 3010 ± 580 µM | 0.000107 ± 1.4e-05 s⁻¹ | 0.00027 ± 6.5e-05 s⁻¹ | 0.00045 ± 4.9e-05 s⁻¹ |  |  |
| A15G G62C U69G | 1.74e-05 ± 5.1e-06 s⁻¹ |  |  |  |  |  |  |
| C16A G29A | 0.00235 ± 0.00058 s⁻¹ | 1790 ± 630 µM | 0.000549 ± 9.9e-05 s⁻¹ | 0.00127 ± 0.00024 s⁻¹ | 0.00227 ± 0.00042 s⁻¹ | 7.39e-05 ± 1.3e-05 s⁻¹ | 0.000175 ± 3.3e-05 s⁻¹ |
| A15G G66C | 0.000786 ± 0.00011 s⁻¹ | 833 ± 220 µM | 0.000368 ± 6e-05 s⁻¹ | 0.000793 ± 0.00014 s⁻¹ | 0.000649 ± 9.7e-05 s⁻¹ | 3.37e-05 ± 1.1e-05 s⁻¹ | 0.000115 ± 2.5e-05 s⁻¹ |
| A15G G66U | 0.00552 ± 0.0016 s⁻¹ | 5370 ± 2200 µM | 0.000492 ± 9.7e-05 s⁻¹ | 0.00161 ± 0.00029 s⁻¹ | 0.00374 ± 0.00049 s⁻¹ | 6.81e-05 ± 1.4e-05 s⁻¹ | 0.000169 ± 3.6e-05 s⁻¹ |
| G21U | 0.0659 ± 0.016 s⁻¹ | 2090 ± 600 µM | 0.0147 ± 0.0015 s⁻¹ | 0.0337 ± 0.0063 s⁻¹ | 0.059 ± 0.0083 s⁻¹ | 0.00136 ± 8.6e-05 s⁻¹ | 0.00351 ± 0.00055 s⁻¹ |
